Values joined by “and” are separate entries in the source; they are usually repeats but may differ in a detail not shown here. Equal values may be shown once.
How the values were obtained:
[1] = molecular target: T1, fibrin matrix (Homo sapiens, UniProt P02671+P02675+P02679); assay: Retention assay: covalent binding of TGplPTH1-34 to fibrin matrix (unbound peptide extracted, PTH1-34 ELISA); conditions: for % unbound TGplPTH1-34 in fibrin matrix: 1 mg/ml final; for Average % unbound ± SD: both experiments
T1 construct: thrombin on one hand cleaves fibrinogen leading to fibrin polymers; purchased Baxter Healthcare AG (ARTISS®)
T1 sequence (P02671 36-866 limits assumed): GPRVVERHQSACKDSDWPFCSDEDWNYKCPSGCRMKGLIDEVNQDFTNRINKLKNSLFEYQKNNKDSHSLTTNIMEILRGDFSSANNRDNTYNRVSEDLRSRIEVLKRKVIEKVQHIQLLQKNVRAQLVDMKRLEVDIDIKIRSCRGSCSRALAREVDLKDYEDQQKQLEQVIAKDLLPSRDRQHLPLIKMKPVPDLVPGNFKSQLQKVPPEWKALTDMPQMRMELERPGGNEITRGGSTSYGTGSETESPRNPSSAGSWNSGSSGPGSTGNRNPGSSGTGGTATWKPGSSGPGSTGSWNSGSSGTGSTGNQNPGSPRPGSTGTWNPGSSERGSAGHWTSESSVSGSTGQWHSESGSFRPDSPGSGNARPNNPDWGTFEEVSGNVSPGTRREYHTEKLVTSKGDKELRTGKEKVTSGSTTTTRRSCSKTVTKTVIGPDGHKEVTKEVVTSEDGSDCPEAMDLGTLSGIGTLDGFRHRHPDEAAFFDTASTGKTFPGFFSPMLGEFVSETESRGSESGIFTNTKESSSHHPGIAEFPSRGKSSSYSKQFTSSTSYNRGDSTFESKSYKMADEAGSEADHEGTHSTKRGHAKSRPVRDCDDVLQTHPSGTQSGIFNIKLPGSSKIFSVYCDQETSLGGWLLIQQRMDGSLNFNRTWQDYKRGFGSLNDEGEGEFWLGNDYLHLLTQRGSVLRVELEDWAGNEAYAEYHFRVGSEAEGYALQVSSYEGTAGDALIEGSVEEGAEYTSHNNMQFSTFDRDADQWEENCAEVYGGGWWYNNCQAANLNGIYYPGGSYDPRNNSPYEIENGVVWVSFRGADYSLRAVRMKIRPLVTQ
T1 sequence (P02675 45-491 limits assumed): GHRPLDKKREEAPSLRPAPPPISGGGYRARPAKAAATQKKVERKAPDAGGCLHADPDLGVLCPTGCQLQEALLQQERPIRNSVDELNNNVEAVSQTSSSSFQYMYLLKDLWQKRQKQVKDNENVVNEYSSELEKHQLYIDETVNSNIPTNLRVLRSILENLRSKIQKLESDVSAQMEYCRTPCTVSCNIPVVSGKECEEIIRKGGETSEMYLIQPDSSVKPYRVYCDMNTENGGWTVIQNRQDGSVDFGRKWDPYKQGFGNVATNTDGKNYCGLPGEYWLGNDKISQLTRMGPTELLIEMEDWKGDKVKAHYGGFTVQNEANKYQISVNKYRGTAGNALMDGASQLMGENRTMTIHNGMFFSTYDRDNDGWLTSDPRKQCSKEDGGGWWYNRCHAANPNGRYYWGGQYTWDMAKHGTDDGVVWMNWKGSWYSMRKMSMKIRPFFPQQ
T1 sequence (P02679 27-433 limits assumed): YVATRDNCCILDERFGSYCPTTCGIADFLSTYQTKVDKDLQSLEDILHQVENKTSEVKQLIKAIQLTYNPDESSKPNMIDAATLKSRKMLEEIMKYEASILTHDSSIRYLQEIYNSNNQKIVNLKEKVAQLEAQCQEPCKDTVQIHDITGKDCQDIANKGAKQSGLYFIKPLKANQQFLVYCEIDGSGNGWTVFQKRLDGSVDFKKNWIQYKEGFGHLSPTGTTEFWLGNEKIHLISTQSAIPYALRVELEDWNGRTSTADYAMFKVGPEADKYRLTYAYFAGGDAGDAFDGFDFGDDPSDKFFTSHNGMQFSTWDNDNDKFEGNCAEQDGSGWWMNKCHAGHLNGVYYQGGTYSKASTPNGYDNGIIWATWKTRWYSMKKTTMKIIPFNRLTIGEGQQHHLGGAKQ
Protocol: The percentage of covalent TGplPTH1-34 binding to fibrin matrices was determined in fibrin matrices prepared with two different methods using an indirect assay. With this assay, non-covalently bound TGplPTH1-34 that can be washed out of the matrix is determined. In the first method (pre-mixing), the two components of the fibrin sealant, ARTISS® were thawed and TGplPTH1-34 was premixed with the fibrinogen component at a concentration of 2 mg/ml. Immediately after mixing, the two components of the fibrin sealant were frozen again and stored at −20° C. The samples were then thawed, and the two components of the sealant were mixed. The final concentration of TGplPTH1-34 in mixed fibrin sealant was 1 mg/ml.
In the second method, the two fibrin sealant components were directly mixed with TGplPTH1-34 solubilized in water to achieve a final concentration of 1 mg/ml (see FIG. 1A).
To evaluate the amount of TGplPTH1-34 covalently bound to the fibrin matrix with the two methods, samples prepared by either of the two methods were subjected to a retention assay. Aliquots of 50 μl were added to 1.5 ml Eppendorf tubes. The fibrin matrices were then incubated at 37° C. for 1 hour. Unbound TGplPTH1-34 was extracted from the fibrin matrix by addition of 1.5 ml extraction buffer (50 mM Tris pH 9.4, 1M NaCl, 0.1% Tween 20) supplemented with protease Inhibitors (Roche Cat #11836153001 cOmplete™, Mini Protease Inhibitor Co) and incubated under constant shaking. After 3 hours the supernatant was collected and 1.5 ml of fresh extraction buffer was added to the fibrin matrix. This extraction step was repeated after 6, 24, 30 and 48 h. Collected supernatants were stored at −20° C. until further processing.
To determine the amount of unbound TGplPTH1-34, the 5 collected supernatants were thawed and pooled. TGplPTH1-34 in the pool was determined by ELISA with a commercial PTH1-34 ELISA kit (Immutopics, Cat *60-3900) following the manufacturer's recommendation. Two independent experiments (three samples per fibrin matrix and experiment) were performed with both preparation methods and the amount of TGplPTH1-34 not bound to the fibrin matrix was determined.

[2] = test system: fibrinogen solution; assay: Stability of TGplPTH1-34 over time in fibrinogen solution stored at room temperature (HPLC-UV); type: physicochemical; conditions: for TGplPTH1-34 content Mean ± SD / % loss of TGplPTH1-34: in fibrinogen solution; for TGplPTH1-34 content Mean ± SD: room temperature (20-25° C.); for % loss of TGplPTH1-34: room temperature
Protocol: In order to evaluate the stability of TGplPTH1-34 in the fibrinogen component over time, TGplPTH1-34 was mixed with a fibrinogen solution and stored at room temperature.
TGplPTH1-34 was added to fibrinogen solution at a concentration of 266 μg/ml and incubated at room temperature for up to 34 days. Samples were taken at indicated time points and TGplPTH1-34 concentration was determined by HPLC. Briefly, TGplPTH1-34 was quantified with a HPLC-UV method using a Zorbax Agilent RP18 column (4.6×150 mmm, 5 μm, 300 A) for the separation of related substances. As eluent A: 0.1% TFA, 1% ACN in water and as eluent B: 0.1% TFA in ACN was used. The gradient was 0 min. 26% B; 15 min 38% B; 18 min. 90% B; 22 min 26% B; 24 min 26% B. The injection volume was 20 μl and the flow rate was 1 ml/min. The column temperature was 35° C. A reference standard was used for the calibration curve.
The results from the TGplPTH1-34 stability analysis in fibrinogen stored at room temperature (20-25° C.) for up to 34 days are shown in Table 2.

TGplPTH1-34: PTH fusion peptide: TG substrate domain, plasmin cleavage site, PTH1-34; NQEQVSPLYKNRSVSEIQLMHNLGKHLNSMERVEWLRKKLQDVHNF (Synthetic fusion protein)
% unbound TGplPTH1-34 in fibrin matrix ([1]; First method (pre-mixing with fibrinogen component, refrozen), Experiment 1, samples 1-3): 16.8% and 14.4% and 13.9%
% unbound TGplPTH1-34 in fibrin matrix ([1]; First method (pre-mixing with fibrinogen component, refrozen), Experiment 2, samples 1-3): 14.7% and 10.2% and 15.1%
Average % unbound ± SD ([1]; First method (pre-mixing)): 14.2 ± 2.2%
Average % unbound ± SD ([1]; Second method (direct mixing)): 14.0 ± 1.4%
% unbound TGplPTH1-34 in fibrin matrix ([1]; Second method (sealant components directly mixed with TGplPTH1-34 in water), Experiment 1, samples 1-3): 13.9% and 11.3% and 15.4%
% unbound TGplPTH1-34 in fibrin matrix ([1]; Second method (sealant components directly mixed with TGplPTH1-34 in water), Experiment 2, samples 1-3): 14.4% and 14.7%
% of the product degraded ([2]; 3-5 days in fibrinogen solution at room temperature (time frame for manufacturing)): 4.3-7.8%
TGplPTH1-34 content Mean ± SD ([2]; day 0, added at 266 μg/ml): 232 ± 0.99 µg/mL
% loss of TGplPTH1-34 ([2]; day 3): −4.3%
TGplPTH1-34 content Mean ± SD ([2]; day 3): 222 ± 0.80 µg/mL
% loss of TGplPTH1-34 ([2]; day 5): −7.8%
TGplPTH1-34 content Mean ± SD ([2]; day 5): 214 ± 1.48 µg/mL
% loss of TGplPTH1-34 ([2]; day 7): −10.3%
TGplPTH1-34 content Mean ± SD ([2]; day 7): 208 ± 1.76 µg/mL
% loss of TGplPTH1-34 ([2]; day 14): −17.2%
TGplPTH1-34 content Mean ± SD ([2]; day 14): 192 ± 2.28 µg/mL
% loss of TGplPTH1-34 ([2]; day 21): −24.1%
TGplPTH1-34 content Mean ± SD ([2]; day 21): 176 ± 1.57 µg/mL
% loss of TGplPTH1-34 ([2]; day 29): −25.9%
TGplPTH1-34 content Mean ± SD ([2]; day 29): 172 ± 2.51 µg/mL
% loss of TGplPTH1-34 ([2]; day 34): −28.0%
TGplPTH1-34 content Mean ± SD ([2]; day 34): 167 ± 1.2 µg/mL
degradation of the fusion peptide in fibrinogen solution ([2]; exposure for more than 5 days at room temperature): substantial degradation

Source: patent US11266762B2, “Methods and kits for producing a fibrin matrix” (Kuros Biosurgery AG, priority 2018, dated 2022)
